What was measured:
Experiment in all cases: cell-based or functional assay
[1] = biological target: SARS-CoV-2 spike protein, Delta (B.1.617.2) variant, on pseudovirus (SARS-CoV-2 (Delta variant))
[2] = biological target: SARS-CoV-2 spike protein, Omicron BA.2 variant, on pseudovirus (SARS-CoV-2 (Omicron BA.2 variant))
[3] = biological target: SARS-CoV-2 spike protein, Alpha (B.1.1.7) variant, on pseudovirus (SARS-CoV-2 (Alpha variant))
[4] = biological target: SARS-CoV-2 spike protein, Beta (B.1.351) variant, on pseudovirus (SARS-CoV-2 (Beta variant))
[5] = biological target: SARS-CoV-2 spike protein, Omicron BA.4/BA.5 variants, on pseudovirus (SARS-CoV-2 (Omicron BA.4/BA.5 variants))
[6] = biological target: SARS-CoV-2 spike protein, Gamma (P.1) variant, on pseudovirus (SARS-CoV-2 (Gamma variant))

For S2E12 (antibody), the IC50 (µg/ml), pseudotyped virus neutralization [1] was < 0.0003 µg/mL, the IC50 (µg/ml), pseudotyped virus neutralization [2] was 0.137 µg/mL and the IC50 (µg/ml), pseudotyped virus neutralization [3] was 0.0004 µg/mL. For the same substance, the IC50 (µg/ml), pseudotyped virus neutralization [4] was < 0.0003 µg/mL, the IC50 (µg/ml), pseudotyped virus neutralization [5] was > 1 µg/mL and the IC50 (µg/ml), pseudotyped virus neutralization [6] was 0.0003 µg/mL.
For S309 (antibody), the IC50 (µg/ml), pseudotyped virus neutralization [1] was 0.0336 µg/mL, the IC50 (µg/ml), pseudotyped virus neutralization [2] was 0.416 µg/mL and the IC50 (µg/ml), pseudotyped virus neutralization [3] was 0.0347 µg/mL. The IC50 (µg/ml), pseudotyped virus neutralization [4] was 0.0043 µg/mL, the IC50 (µg/ml), pseudotyped virus neutralization [5] was 0.142 µg/mL and the IC50 (µg/ml), pseudotyped virus neutralization [6] was 0.0083 µg/mL.

From patent publication EP4349860A1
